These results are taken from article PMC4169044.

The target of the test is 55S mitochondrial ribosome from pig liver mitochondria (pig (endogenous in pig liver mitochondria)). The test can be described thus: Western blotting of purified ribosomes against a protein standard; amount of integrated ICT1 on purified pig 55S ribosomes estimated with purified ICT1 as a standard.

Turning to “55S-integrated ICT1 of the pig mitoribosome (mitochondrial ribosomal protein L58) (natural protein)”, the stoichiometry N (ICT1 per 55S ribosome) was 1.
